Results as given in patent publication US20140056903A1 (Regeneron, published 2014).
Where a chain is given by its changes, count along the chain named. Names may count otherwise.

B1: H4H2352S (antibody, human IgG4, V domains shown)
VH: EVQLVQSGAEVKKPGASVKVSCKASGYTFTNYGITWVRQAPGQGLEWMGWISAYNGNTGYAQKFQGRVTMTTDTSTSTAYMELRSLRSDDTAVYYCAREDYDFWRAFDIWGQGTMVTVSS
VL: EIVLTQSPGTLSLSPGERATLSCRASQSVSSTYLAWLQQKPGQAPRLLIYGASSRATGIPDRFSGSGSGTDFTLTINRLEPEDFAVYYCQQYAYSPYTFGQGTKLEIK
notes: human IgG4 Fc (H4H); also called H4H2352S-1
B2: H4H2212N (antibody, human IgG4, V domains shown)
VH: EVQLLESGGGLVQPGGSLRLSCAASGFTFSSYAMSWVRQGPGKGLEWVSGISGSGGSTYNADSVKGRFTISRDNSKNTLYLQMNSLRAEDTAVYYCAKDSGTYWYYFDYWGQGILVTVSS
VL: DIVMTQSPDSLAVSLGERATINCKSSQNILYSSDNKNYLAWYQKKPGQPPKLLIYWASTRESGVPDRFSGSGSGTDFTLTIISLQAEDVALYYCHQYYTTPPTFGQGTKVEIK
notes: human IgG4 Fc (H4H)
B3: H4H2292S (antibody, human IgG4, V domains shown)
VH: EVQLVESGGGVVQPGRSLRLSCAASGFTFSSYGMHWVRQAPGKGLEWVSFIWYDGSNKYYADSVKGRFTISRDNSKNTLYLQMNSLTAEDTAVYYCARRGILTGTTAFDIWGQGTMVTVSS
VL: DIQMTQSPSSLSASVGDRVTITCRASQSISSYLNWYQQKPGKAPKLLIYAASSLQSGVPSRFSGSGSGTDFTLTIRSLIPEDFATYYCQQTYNTPFTFGPGTKVEIK
notes: human IgG4 Fc (H4H)
B4: H4H2350P (antibody, human IgG4, V domains shown)
VH: QVQLQESGPGLVKPSETLSLTCTVSGGSISTYYWSWFRQPPGKGLEWIGYIYYSGSTNHNPSLKSRVTISVDTSKNQFSLKLRSVTAADTAVYYCARVGPVGWGSWGNFDYWGQGTLVTVSS
VL: DIQLTQSPSFLSASVGDRVTITCWASQGISSYLAWSQQKPGKAPKLLIYAASTLQSGVPSRFSGSGSGTEFTLTISSLQPEDFATYYCQQLNSYPWTFGQGTKVEIK
notes: human IgG4 Fc (H4H)
B5: H4H2342P (antibody, human IgG4, V domains shown)
VH: EVQLLESGGGLVQPGGSLRLSCAASGFTFSTYAMSWVRQAPGKGLEWVSAIRGNGVNTYYGDSMKGRFTISRDNSKDTLYLQMNSLRAEDTAVYYCAKNKWELLVFEYWGQGTLVTVSS
VL: DIQMTQSPSSLSASVGDRVTITCRASQDISNYLAWYQQKPGKVPKLLIYAASTLQSGVPFRFSGSGSGTDFTLTISSLQPEDVATYYCQKYNSAPPFGPGTKVDIK
notes: human IgG4 Fc (H4H)
B6: H4H2294S (antibody, human IgG4, V domains shown)
VH: EVQLVESGGGLVQPGGSLRLSCAASGFTFSSYAMSWVRQAPGKGLEWVSVISGSGGSTYYADAVKGRFTISRDNSKHTLYLQMNSLRAEDTAVYYCTKPSSYSSSNFYYGMDVWGQGSTVTVSS
VL: DIQLTQSPSSVSASVGDRVTITCRASQGISSWLAWYQQKPGKAPKLLIYAASSLQSGVPSRFSGSGSGTDFTLTISSLQPEDFATYYCQQTNSFPFPFGPGTKVDIK
notes: human IgG4 Fc (H4H)
B7: H4H2357S (antibody, human IgG4, V domains shown)
VH: EVQLVESGGGLVQPGGSLRLSCAASTFTFSSYAMTWVRQAPGKGLEWVSSISGSGDSTYYADSVKGRFTISRDNSKNTLFLQMNSLRAEDTAVYYCAKKDGPGRYYVRYGMDVWGQGTTVTVSS
VL: B6 VL with L4M, A50T, A51T, T91A, F96L, P97T, P100G
notes: human IgG4 Fc (H4H)
B8: H4H2243N2 (antibody, human IgG4, V domains shown)
VH: QVQLVQSGAEVKKPGASVKVSCKASGYTFTSYGIIWVRQAPGQGLEWMGWISGYNGNTNYAQNLQGRVTMTTDTSTTTAYMELRSLRSDDTAVYYCARWGIATRPYYYYGMDVWGQGTTVTVSS
VL: DIQMTQSPSSLSASVGDRVTITCRASQDITNYLAWFQQKPGKAPKSLIYAASSLQSGVPSKFSGSGSGTDFTLTISSLQPEDFATYYCQQYNSYPPTFGPGTKVDIK
notes: human IgG4 Fc (H4H)

These binders were tested against T1, human GFRα3 expressed with a C-terminal hFc tag (human) (assay: blocking ELISA 1, hGFRα3-hFc to coated hARTEMIN-mmH).
T1 construct: also called hGFRα3-hFc
T1 sequence (chain, as listed by the source limits assumed): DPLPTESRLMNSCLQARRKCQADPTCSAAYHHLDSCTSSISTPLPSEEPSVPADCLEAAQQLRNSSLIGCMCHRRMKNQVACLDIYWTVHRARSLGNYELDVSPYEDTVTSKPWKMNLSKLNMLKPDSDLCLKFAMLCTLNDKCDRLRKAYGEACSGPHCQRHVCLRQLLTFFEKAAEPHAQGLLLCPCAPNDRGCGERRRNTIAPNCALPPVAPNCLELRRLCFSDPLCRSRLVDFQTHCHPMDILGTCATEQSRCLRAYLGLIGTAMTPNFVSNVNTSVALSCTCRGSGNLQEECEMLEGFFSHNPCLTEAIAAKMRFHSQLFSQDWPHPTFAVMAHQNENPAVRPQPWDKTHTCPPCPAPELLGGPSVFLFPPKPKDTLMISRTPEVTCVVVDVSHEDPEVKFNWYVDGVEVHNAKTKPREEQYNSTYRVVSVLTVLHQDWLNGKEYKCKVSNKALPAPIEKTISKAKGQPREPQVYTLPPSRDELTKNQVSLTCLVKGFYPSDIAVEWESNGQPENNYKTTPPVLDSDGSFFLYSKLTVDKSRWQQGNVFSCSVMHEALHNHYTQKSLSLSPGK
Method: (§1) A constant amount of human GFRα3 fused with a C-terminal human Fc tag (hGFRα3-hFc; SEQ ID:371) at 120 pM was pre-mixed with varying amounts of antibodies, ranging from 0 to ˜10 nM in serial dilutions, followed by an 1 hour incubation at room temperature (RT) to allow antibody-hGFRα3-hFc binding to reach equilibrium. The equilibrated sample solutions were then transferred to the hARTEMIN-mmH-coated plate. […] Absorbance was recorded at 450 nm on a Victor X5 plate reader (Perkin Elmer) to determine the amount of free hGFRα3-hFc in the pre-equilibrated hGFRα3-hFc-antibody solutions that was able to bind to the plate coated with hARTEMIN-mmH. IC₅₀ values, defined as the concentration of antibody required to reduce the signal from a constant concentration of hGFRα3-hFc by 50%, were calculated from the data using Prism software from GraphPad. The absorbance measured at the constant amount of 120 pM hGFRα3-hFc in the absence of anti-GFRα3 antibody is defined as 0% blocking and the absorbance with no added hGFRα3-hFc is defined as 100% blocking. The observed absorbance in the wells containing the highest antibody concentration was used to calculate the maximum blocking percent shown in the table.

% max blocking [%]	IC50 [nM]	Binder
51	0.0658	B1
81	0.0438	B2
89	0.723	B3
93	0.496	B4

These binders were tested against T2, human GFRα3 expressed with a C-terminal myc-myc-hexahistidine tag (human, UniProt O60609 32-374, biotinylated (sites not given) in ELISA format 2 and in the Octet cross-competition; not in SPR) (assay: blocking ELISA 2, biotin-hGFRα3-mmH to coated hARTEMIN-mmH + hRET-10His).
T2 construct: also called hGFRα3-mmh; hGFRα3-mmH
Method: as §1, with “The” for “A constant amount of human GFRα3 fused with a C-terminal human Fc tag (hGFRα3-hFc; SEQ ID:371) at 120 pM was pre-mixed with varying amounts of antibodies, ranging from 0 to ˜10 nM in serial dilutions, followed by an 1 hour incubation at room temperature (RT) to allow antibody-hGFRα3-hFc binding to reach equilibrium. The”
In the second ELISA format, the plates, samples and data were processed similarly as for the first format except both hARTEMIN-mmH and human RET with a C-terminal 10 histidine tag (hRET-10His; R&D Systems, #1168-CR/CF) were coated for the blocking ELISA experiment. The 96-well microtiter plates were coated with a mixture of 1.2 ug/ml hARTEMIN-mmH and 6.9 ug/ml hRET-10His proteins in PBS overnight at 4° C. and then blocked with a solution of 0.5% (w/v) BSA. A constant amount of biotinylated human GFRα3 with a C-terminal myc-myc-hexahistidine tag (biotin-hGFRα3-mmH; SEQ ID:370) at 1 nM was pre-mixed with varied amounts of anti-GFRα3 antibodies, ranging from 0 to ˜100 nM in serial dilutions, followed by a 1 hour incubation at RT to allow antibody-biotin-hGFRα3-mmH binding to reach equilibrium. The equilibrated samples were then transferred to the coated plate. After 1 hour of binding, the plate was washed, then the bound biotin-hGFRα3-mmH was detected using HRP conjugated streptavidin (Pierce, #N200), and colorimetric signals were developed using TMB HRP substrates.

% max blocking [%]	IC50 [nM]	Binder
100	0.761	B1
97	1.08	B5
95	0.952	B6
86	3.28	B7
99	0.403	B2
100	1.76	B3
91	1.29	B4
95	1.12	B8

Each binder was assayed against T2, human GFRα3 expressed with a C-terminal … (assay: Octet cross-competition; biotin-hGFRα3-mmH pre-saturated with first antibody H4H2291S).
Method: (§2) A cross-competition assay was conducted to assess the ability of select antibodies to compete with one another for binding to human GFRα3 using an Octet RED384 biosensor (Fortebio Inc.). The entire experiment was performed at 25° C. with the flow rate of 1000 rpm in Octet HBST buffer (0.01 M HEPES pH7.4, 0.15M NaCl, 3 mM EDTA, 0.05% v/v Surfactant P20, 0.1 mg/mL BSA). To assess whether 2 antibodies were able to compete with one another for binding to their respective epitopes on biotinylated recombinant human GFRα3 expressed with a C-terminal myc-myc-hexahistidine tag (biotin-hGFRα3-mmH; SEQ ID:370), around ˜1.2 nm of biotin-hGFRα3-mmH was first captured onto streptavidin-coated Octet sensor tips (Fortebio Inc, #18-5019) by submerging the tips for 1 minute into a 10 μg/mL solution of biotin-hGFRα3-mmH. The antigen coated sensor tips were then placed into wells containing 25 μg/mL solution of a first anti-GFRα3 monoclonal antibody for 4 minutes to saturate the biotin-hGFRα3-mmH surface. The sensor tips were then subsequently dipped into wells containing 25 μ/mL solution of a second anti-GFRα3 monoclonal antibody. The sensor tips were washed in Octet HBST buffer in between every step of the experiment. The real-time binding response was monitored during the course of the experiment and the binding response at the end of every step was recorded as shown in FIG. 9. The response of mAb-2 binding to biotin-hGFRα3-mmH pre-complexed with the first antibody was compared and competitive/non-competitive behavior of different anti-GFRα3 monoclonal antibodies was determined.

binding response of second antibody (nm)	Binder
2.03	B1
-0.01	B5
0	B6
0	B7
1.96	B2
1.94	B3
1.44	B4
0	B8

Each binder was assayed against T2, human GFRα3 expressed with a C-terminal … (assay: Octet cross-competition; biotin-hGFRα3-mmH pre-saturated with first antibody H4H2350P).
Method: as §2

binding response of second antibody (nm)	Binder
2.06	B1
1.8	B5
2	B6
2.23	B7
1.57	B2
1.74	B3
0.25	B4
1.72	B8

The binders below were run against T2, human GFRα3 expressed with a C-terminal … (assay: Octet cross-competition; biotin-hGFRα3-mmH pre-saturated with first antibody H4H2355S).
Method: as §2

binding response of second antibody (nm)	Binder
1.97	B1
0.06	B5
0.16	B6
0.16	B7
1.95	B2
1.92	B3
1.44	B4
0.09	B8

The binders below were run against T2, human GFRα3 expressed with a C-terminal … (assay: Octet cross-competition; biotin-hGFRα3-mmH pre-saturated with first antibody H4H2236N3).
Method: as §2

binding response of second antibody (nm)	Binder
1.91	B1
-0.01	B5
0	B6
0.04	B7
1.79	B2
1.81	B3
1.35	B4
0.02	B8
